Assay results published in US20160032013A1 (Genentech, published 2016).
Positions count from the first letter of the chain named. Names may count otherwise. One block for each binder: values may come before it.

How the values were obtained:
[1] = target: T1, Human RON on cells (3T3-hRON, A2780-hRON, BxPC3, human primary colon cells) (human, UniProt Q04912 25-1400); assay: radioligand binding to 3T3-hRON cells for 4 h on ice
T1 construct: That is its entry for human RON

[2] = target: T1, Human RON on cells (3T3-hRON, …); assay: radioligand binding to 3T3-hRON cells for 2 h at room temperature
Description: (§1) MSP proteins were iodinated using the Iodogen method (Thermo Scientific) and purified from free Na¹²⁵I by gel filtration using a NAP-5 column. Specific activities ranged from 12.26 to 18.65 μCi/μg. Competition reaction mixtures were made of a fixed concentration of iodinated MSP and unlabeled MSP serially diluted 1- to 2-fold ten times starting at 5 μM in a volume of 50 μL. 3T3-hRon cells were washed with binding buffer, consisting of DMEM with 1% bovine serum albumin, 325 nM human IgG, 50 mM HEPES (pH 7.2) and 0.1% sodium azide. 150,000 cells in 0.2 ml binding buffer were added to competition reaction mixtures. Competition reactions with cells were incubated for 2 h at room temperature and transferred to a Multiscreen filter plate (Millipore) and washed 4 times with binding buffer. Filters were counted on a Wallac Wizard 1470 gamma counter (PerkinElmer Life and Analytical Sciences). Binding affinities were determined using NewLigand software (Genentech, Inc) (Munson et al., 1980, Anal Biochem 107:220-39).

[3] = target: T2, Human RON-hIgG1 Fc (RON Sema/PSI/IPT1 fused to human IgG1 Fc) (human); assay: plate binding assay, plate-bound RON-Fc, soluble His-tagged MSP, anti-His-HRP, 4-parameter fit
T2 construct: also called RON-Fc; hRON-Fc
T2 sequence (chain, as listed by the source limits assumed): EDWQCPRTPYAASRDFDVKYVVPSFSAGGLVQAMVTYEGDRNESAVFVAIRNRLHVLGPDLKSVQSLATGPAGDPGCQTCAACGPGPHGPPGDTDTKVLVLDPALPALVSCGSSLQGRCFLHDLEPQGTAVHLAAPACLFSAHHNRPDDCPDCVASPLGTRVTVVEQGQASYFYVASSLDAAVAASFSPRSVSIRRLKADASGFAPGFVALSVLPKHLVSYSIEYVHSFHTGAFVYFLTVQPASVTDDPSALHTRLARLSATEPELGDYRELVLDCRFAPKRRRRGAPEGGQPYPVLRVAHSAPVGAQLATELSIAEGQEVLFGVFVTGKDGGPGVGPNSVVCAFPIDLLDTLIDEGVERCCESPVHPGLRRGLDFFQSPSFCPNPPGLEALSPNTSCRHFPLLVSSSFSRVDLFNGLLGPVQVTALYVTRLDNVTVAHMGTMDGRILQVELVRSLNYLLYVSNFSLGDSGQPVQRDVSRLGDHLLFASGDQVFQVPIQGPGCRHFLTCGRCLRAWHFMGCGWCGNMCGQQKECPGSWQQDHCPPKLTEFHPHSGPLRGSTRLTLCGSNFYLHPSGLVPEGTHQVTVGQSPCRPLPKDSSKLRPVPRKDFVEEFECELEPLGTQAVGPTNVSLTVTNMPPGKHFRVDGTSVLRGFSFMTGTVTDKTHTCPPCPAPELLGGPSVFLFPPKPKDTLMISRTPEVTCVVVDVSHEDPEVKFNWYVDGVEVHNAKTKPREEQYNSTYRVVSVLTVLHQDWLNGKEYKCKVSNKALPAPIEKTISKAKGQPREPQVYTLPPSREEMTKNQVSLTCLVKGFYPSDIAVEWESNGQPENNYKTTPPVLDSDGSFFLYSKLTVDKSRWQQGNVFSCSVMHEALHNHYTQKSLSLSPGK
Source text: (§2) Means of three replicates per group are shown. […] C presents results of SPR analysis of MSP proteins binding to immobilized RON Sema/PSI, showing relative response in response units. Data are representative of three independent experiments. […] Competition binding to 3T3-hRON cells (large graphs) used to generate affinities and Scatchard plots (inset graphs) are shown. Mean+/−standard deviation (SD) of three independent experiments is shown. E is a homology model of the structure of RON Sema/PSI (PDB code 4FWW) shown at the bottom, which binds to MSP β (PDB code 2ASU) shown on top. RON and MSP β were globally aligned to the Met/HGF β complex (PDB code 1SHY). Predicted locations of the MSP β contact residues within 4 Å of RON are marked by asterisks. […]
(§3) MaxiSorp plates (Nalge Nunc International) were coated overnight at 4° C. with 2 μg/ml of rabbit anti-human IgG Fc specific antibody (Jackson ImmunoResearch Laboratories) in 50 mM sodium carbonate buffer, pH 9.6. […] Bound MSP was detected using anti-His-HRP (Qiagen Inc.) followed by addition of TMB/H₂O₂ substrate (Thermo Scientific). The reaction was stopped with 1M H₃PO₄ and the absorbance at 450 nm (A₄₅₀) was measured on a SpectraMax Plus³⁸⁴ plate reader (Molecular Devices, LLC). The half maximal effective concentration of MSP (EC₅₀) was determined by a 4-parameter fit using Kaleidagraph (Synergy Software).

[4] = target: T1, Human RON on cells (3T3-hRON, …); assay: radioligand competition binding on 3T3-hRON cells: fixed 125I-MSP 689R as competitor, unlabeled MSP 689R titrated [Continued) D]
Description: as §1

[5] = target: T2, Human RON-hIgG1 Fc (RON Sema/PSI/IPT1 …); assay: plate binding assay, plate-bound RON-Fc, soluble His-tagged MSP β, anti-His-HRP, 4-parameter fit
Source text: as §2, §3

[6] = target: T2, Human RON-hIgG1 Fc (RON Sema/PSI/IPT1 …); assay: BLI using RON-Fc at 30 C
Description: Real-time kinetic measurements of MSP binding to RON were conducted using an Octet RED384 (ForteBio, Inc). Samples or buffer were dispensed into 96-well microtiter plates (Greiner Bio-One North America, Inc.) at a volume of 200 μl per well. Anti-human IgG Fc Biosensors were used for the experiments. Each experiment consisted of three steps: incubation with ForteBio Kinetic buffer diluted 1:10 in PBS assay buffer to establish an equilibrium for 120 s (baseline), incubation with 10 μg/ml RON-Fc in assay buffer to coat the biosensor with binding target for 900 s (load), incubation with MSP, MSP β or scMSP in assay buffer containing various concentrations (75-4.7 nM, 2-fold dilution series) for 400 s (association), and incubation with assay buffer to measure the off-rate of MSP for 400 s (dissociation). Operating temperature was maintained at 30° C. Data were generated automatically by the Octet Data Acquisition 7.0 software. Each data set was fitted globally to a simple one-to-one binding model using ForteBio Analysis Software 7.0 to determine the kinetic parameters kₐ and kd. The equilibrium dissociation constants (KD) were then calculated as a ratio (koff/kₒₙ) of these rate constants.

[7] = target: T2, Human RON-hIgG1 Fc (RON Sema/PSI/IPT1 …); assay: SPR capturing RON-Fc at 25 C
Description: To determine MSP protein binding kinetics to hRON-Fc or mRON-Fc fusion proteins, between 50 and 100 response units (RU) were captured on each of three immobilized anti-human Fc surfaces. Various concentrations (50-0.78 nM, 2-fold dilution series) of MSP, MSP β, MSP α or scMSP were injected in HBS-P buffer (10 mM HEPES, pH 7.5, 150 mM NaCl, 0.005% P20) at 25° C. with a flow rate of 30 μL/min and dissociation monitored for 4 min. Between measurements, the biosensor surfaces were regenerated with a 2 min pulse of 10 mM glycine-HCl pH 1.5.

[8] = target: T3, Recombinant human RON Sema/PSI (residues E25-P568) with C-terminal His-tag (human, UniProt Q04912 25-568); assay: SPR using immobilized RON Sema/PSI at 25 C
T3 construct: Made in Trichoplusia ni insect cells

[9] = target: T1, Human RON on cells (3T3-hRON, …); assay: radioligand competition binding on 3T3-hRON cells: fixed 125I-MSP 689C as competitor, unlabeled MSP 689C titrated [Continued) D]
Description: as §1

Kd [1]: 23 nM
Kd [2]: 12.6 nM
EC50 [3]: 0.1 nM
IC50 (read off the curve) [4]: ~10 nM
B1: Full length human MSP 689R (wild type + C672A + His tag), active two-chain form (ligand)
chain 1: QRSPLNDFQVLRGTELQHLLHAVVPGPWQEDVADAEECAGRCGPLMDCRAFHYNVSSHGCQLLPWTQHSPHTRLRRSGRCDLFQKKDYVRTCIMNNGVGYRGTMATTVGGLPCQAWSHKFPNDHKYTPTLRNGLEENFCRNPDGDPGGPWCYTTDPAVRFQSCGIKSCREAACVWCNGEEYRGAVDRTESGRECQRWDLQHPHQHPFEPGKFLDQGLDDNYCRNPDGSERPWCYTTDPQIEREFCDLPRCGSEAQPRQEATTVSCFRGKGEGYRGTANTTTAGVPCQRWDAQIPHQHRFTPEKYACKDLRENFCRNPDGSEAPWCFTLRPGMRAAFCYQIRRCTDDVRPQDCYHGAGEQYRGTVSKTRKGVQCQRWSAETPHKPQFTFTSEPHAQLEENFCRNPDGDSHGPWCYTMDPRTPFDYCALRRCADDQPPSILDPPDQVQFEKCGKRVDRLDQRRSKLR
chain 2: VVGGHPGNSPWTVSLRNRQGQHFCGGSLVKEQWILTARQCFSSCHMPLTGYEVWLGTLFQNPQHGEPSLQRVPVAKMVCGPSGSQLVLLKLERSVTLNQRVALICLPPEWYVVPPGTKCEIAGWGETKGTGNDTVLNVALLNVISNQECNIKHRGRVRESEMCTEGLLAPVGACEGDYGGPLACFTHNAWVLEGIIIPNRVCARSRWPAVFTRVSVFVDWIHKVMRLGHHHHHH
notes: Pro-MSP converted with sHepsin into the disulfide-linked alpha/beta heterodimer; Numbering is that of pro-MSP; also called full-length MSP; human full-length MSP

EC50 [5]: 0.05 nM
B2: Human MSP β 689R with wild-type C672 (HGF leader + V484-G711 + C588S + C672C + His tag) (ligand)
chain: B1 chain 2 with C105S, A189C

Kd [6]: 9.4 nM
Kd [7]: 9.6 nM
koff [7]: ~0.0016 s⁻¹
kon [7]: ~170000 M⁻¹ s⁻¹
Kd [8]: 9.6 nM
koff [8]: 0.0012 s⁻¹
kon [8]: 116000 M⁻¹ s⁻¹
Kd [1]: 25.7 nM
Kd [2]: 13 nM
EC50 [3]: 0.2 nM
IC50 (read off the curve) [9]: ~10 nM
B3: Full length human MSP R689C (wild type + C672A + R689C + His tag), active two-chain form (ligand)
chain 1: B1 chain 1
chain 2: B1 chain 2 with R206C

Kd [7]: 9.7 nM
koff [7]: 0.0079 s⁻¹
kon [7]: 870000 M⁻¹ s⁻¹
EC50 [5]: 0.1 nM
B4: Human MSP β R689C with wild-type C672 (HGF leader + V484-G711 + C588S + C672C + R689C + His tag) (ligand)
chain: B1 chain 2 with C105S, A189C, R206C
